Measurements published in patent US20140303084.
Positions count from the first letter of the chain named.

Columns and labels:
[1] = test system: T1, PSGWAGWAPG RREPG KLTCLASYCWLFWTGIA
T1 sequence: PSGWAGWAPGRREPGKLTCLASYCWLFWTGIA

rRASGKLTCLASYCWLFWTGIA = test system: T2, rRASGKLTCLASYCWLFWTGIA
T2 sequence: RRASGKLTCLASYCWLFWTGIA

[2] = test system: T3, LYPRLYTPGS RRAYG KLTCLASYCWLFWTGIA
T3 sequence: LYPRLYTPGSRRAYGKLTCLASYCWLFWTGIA

(PEG)27-KLTCLASYCWLF = test system: T4, (PEG)27-KLTCLASYCWLF
T4 sequence: KLTCLASYCWLF

AQLRRKLTCLASYCWLFGFFSP = test system: T5, AQLRRKLTCLASYCWLFGFFSP
T5 sequence: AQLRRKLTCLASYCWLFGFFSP

[3] = test system: T6, RRAPGKLTCLASYCWLF WTGFA FRVGLASSLY
T6 sequence: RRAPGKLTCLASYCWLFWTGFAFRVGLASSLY

[4] = test system: T7, RRAPG-MeLys-LTCLASYCWLFWTGIA
T7 sequence: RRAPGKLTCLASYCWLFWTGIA

[5] = test system: T8, AKQGRPISPDrRAAGKLTCLASYCWLFWTGIA
T8 sequence: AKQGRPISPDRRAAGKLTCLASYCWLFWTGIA

RRAPGKLTCLASyCWLFWTGIA [6] = test system: T9, RRAPGKLTCLASyCWLFWTGIA
T9 sequence: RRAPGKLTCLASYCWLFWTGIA

[7] = test system: T10, PRIRTVGPGSRSASGKLTCAASYCWLFWTGIA
T10 sequence: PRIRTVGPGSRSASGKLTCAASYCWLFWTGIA

SGRGGKLTCQASFCQLFGNGLS = test system: T11, SGRGGKLTCQASFCQLFGNGLS
T11 sequence: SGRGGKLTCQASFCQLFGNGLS

rRAPGKLTCLASYCWLSWTGIA = test system: T12, rRAPGKLTCLASYCWLSWTGIA
T12 sequence: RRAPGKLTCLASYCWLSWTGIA

[8] = test system: T13, RRAPGKLTCLASYCWK(PEG2-Biotin)FWTGIA
T13 sequence: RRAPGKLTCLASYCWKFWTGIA

KLTCLASYcWLF = test system: T14, KLTCLASYcWLF
T14 sequence: KLTCLASYCWLF

[9] = test system: T15, rRAPGKLTCLASYCWLFWTGIA-PEG16-Lys(PEG2-Biotin)-PEG16
T15 sequence: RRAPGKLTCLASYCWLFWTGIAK

RKAPGKLQCLASYCWLFWTGIA = test system: T16, RKAPGKLQCLASYCWLFWTGIA
T16 sequence: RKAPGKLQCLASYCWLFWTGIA

[10] = test system: T17, TLWPWGGQGG RNAPG KLTCLASYCWLFWTGIA
T17 sequence: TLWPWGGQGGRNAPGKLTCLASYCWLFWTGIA

[11] = test system: T18, RRAPG-k-NMeLeu-TCLASYCWLFWTGIA
T18 sequence: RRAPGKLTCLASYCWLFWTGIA

[12] = test system: T19, SKQGRPISADrRAAGKLTCLASYCWLFWTGIA
T19 sequence: T8 sequence with A1S, P9A

[13] = test system: T20, RRAPGCLTALASYAWLCWTGIA-CONH2
T20 sequence: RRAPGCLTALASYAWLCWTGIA

[14] = test system: T21, RRAPGKLT-Asp-LASY-Dab-WLFWTGIA-CONH2
T21 sequence: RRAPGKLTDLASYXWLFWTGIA

KLTCLASYCQLV = test system: T22, KLTCLASYCQLV
T22 sequence: KLTCLASYCQLV

RRAPGKLQCLASYCWLFWTG = test system: T23, RRAPGKLQCLASYCWLFWTG
T23 sequence: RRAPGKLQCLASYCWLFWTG

RRAPGKLQCLASYCWLFWTGAA = test system: T24, RRAPGKLQCLASYCWLFWTGAA
T24 sequence: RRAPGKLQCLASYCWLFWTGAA

[15] = test system: T25, RRAPGKLTCLASYCWLF WTGWS RDTASHASDS
T25 sequence: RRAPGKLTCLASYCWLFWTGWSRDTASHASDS

APGKLQCLASYCWLFWTGIA = test system: T26, APGKLQCLASYCWLFWTGIA
T26 sequence: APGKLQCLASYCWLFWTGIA

KLTCLAAYCWLF = test system: T27, KLTCLAAYCWLF
T27 sequence: KLTCLAAYCWLF

k-MeLeu-TCLASYCQLF = test system: T28, k-MeLeu-TCLASYCQLF
T28 sequence: KLTCLASYCQLF

[16] = test system: T29, RRAPGKLTCK(PEG2-Biotin)ASYCWLFWTGIA
T29 sequence: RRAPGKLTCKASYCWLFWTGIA

[17] = test system: T30, PRIRTVGPGSRRASGKLTCLASYCWLFWTGIA
T30 sequence: T10 sequence with S12R, A20L

[18] = test system: T31, SLISMTNPSG RRVPG KLTCLASYCWLFWTGIA
T31 sequence: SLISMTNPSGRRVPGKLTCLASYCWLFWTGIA

rRAAGKLTCLASYCWLAATGIA = test system: T32, rRAAGKLTCLASYCWLAATGIA
T32 sequence: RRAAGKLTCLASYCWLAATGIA

[19] = test system: T33, rRAPGKLTCLASYCWLFWTGIA-PEG4-C(N-PEG5k maleimide)
T33 sequence: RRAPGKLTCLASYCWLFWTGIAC

RRAPGKLQCLASYCWLFWTAIA = test system: T34, RRAPGKLQCLASYCWLFWTAIA
T34 sequence: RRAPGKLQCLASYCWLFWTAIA

KLT-Glu-LASY-Orn-WLF = test system: T35, KLT-Glu-LASY-Orn-WLF
T35 sequence: KLTELASYXWLF

[20] = test system: T36, VGSGDERALP SRASG KLTCLASYCWLFWTGIA
T36 sequence: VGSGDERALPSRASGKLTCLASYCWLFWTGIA

RRAPGKLtCLASYCWLFWTGIA [21] = test system: T37, RRAPGKLtCLASYCWLFWTGIA
T37 sequence: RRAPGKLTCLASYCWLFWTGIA

[22] = test system: T38, RRAPGKLCALASYACLFWTGIA-COOH
T38 sequence: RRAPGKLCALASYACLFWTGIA

RRAPGKLQCLASYCWLFWTGI = test system: T39, RRAPGKLQCLASYCWLFWTGI
T39 sequence: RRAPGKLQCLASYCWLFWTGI

KLTCLASYCWL = test system: T40, KLTCLASYCWL
T40 sequence: KLTCLASYCWL

NGGMQKPACLASQCWLFANPLP = test system: T41, NGGMQKPACLASQCWLFANPLP
T41 sequence: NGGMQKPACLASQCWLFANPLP

[23] = test system: T42, RRAPGKLTCLASYCWLF STPVA RKSLRRHQPT
T42 sequence: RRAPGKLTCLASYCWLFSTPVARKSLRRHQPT

[24] = test system: T43, PRIRTVGPGSRSASGKLTCVASYCWLFWTGIA
T43 sequence: T10 sequence with A20V

compound 3 = test system: T44, compound 3
T44 sequence: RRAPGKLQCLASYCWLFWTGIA

WVPQWKVTCLASCSRLFHGFDA = test system: T45, WVPQWKVTCLASCSRLFHGFDA
T45 sequence: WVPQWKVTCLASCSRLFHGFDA

[25] = test system: T46, SRIRTVGPGSRSASGKLTCLASYCWLFWTGIA
T46 sequence: T10 sequence with P1S, A20L

KGAYQKLTCLASYCLLFLLTAQ = test system: T47, KGAYQKLTCLASYCLLFLLTAQ
T47 sequence: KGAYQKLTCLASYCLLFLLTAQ

Q: How did the Vmax, FXa generation assay [1] turn out when human Factor IXa was run?
A: Its Vmax, FXa generation assay is over 2.

Q: And the “Vmax, FXa generation assay; (++) means 1-2” value (shortened to “Vmax … (++) means 1-2”) (rRASGKLTCLASYCWLFWTGIA)?
A: The value was “(++)”.

Q: What about the Vmax, FXa generation assay [2] of the same substance?
A: Its Vmax, FXa generation assay is over 2.

Q: And the Vmax, FXa generation assay ((PEG)27-KLTCLASYCWLF)?
A: The Vmax, FXa generation assay was over 2.

Q: And the “Vmax … (++) means 1-2” value (AQLRRKLTCLASYCWLFGFFSP)?
A: The value was “(++)”.

Q: And the Vmax, FXa generation assay [3]?
A: Its Vmax, FXa generation assay is over 3.

Q: And the “Vmax … (++) means 1-2” value [4]?
A: The value was “(++)”.

Q: And the Vmax, FXa generation assay [5]?
A: Its Vmax, FXa generation assay is over 3.

Q: What about the Vmax, FXa generation assay (RRAPGKLTCLASyCWLFWTGIA [6]) of the same substance?
A: The Vmax, FXa generation assay was over 2.

Q: And the Vmax, FXa generation assay [7]?
A: The Vmax, FXa generation assay was over 2.

Q: And the “Vmax … (++) means 1-2” value (SGRGGKLTCQASFCQLFGNGLS)?
A: Its value is “(++)”.

Q: And the Vmax, FXa generation assay (rRAPGKLTCLASYCWLSWTGIA)?
A: Its Vmax, FXa generation assay is over 1.8.

Q: What about the Vmax, FXa generation assay [8] of the same substance?
A: The Vmax, FXa generation assay was over 3.

Q: What about the Vmax, FXa generation assay (KLTCLASYcWLF) of the same substance?
A: Its Vmax, FXa generation assay is over 3.

Q: And the Vmax, FXa generation assay [9]?
A: The Vmax, FXa generation assay was over 3.

Q: What about the Vmax, FXa generation assay (RKAPGKLQCLASYCWLFWTGIA) of the same substance?
A: Its Vmax, FXa generation assay is over 2.

Q: What about the Vmax, FXa generation assay [10] of the same substance?
A: Its Vmax, FXa generation assay is over 2.

Q: What about the Vmax, FXa generation assay [11] of the same substance?
A: Its Vmax, FXa generation assay is over 3.

Q: What about the Vmax, FXa generation assay [12] of the same substance?
A: The Vmax, FXa generation assay was over 3.

Q: And the “Vmax … (++) means 1-2” value [13]?
A: The value was “(++)”.

Q: What about the “Vmax … (++) means 1-2” value [14] of the same substance?
A: Its value is “(++)”.

Q: What about the Vmax, FXa generation assay (KLTCLASYCQLV) of the same substance?
A: The Vmax, FXa generation assay was over 2.

Q: And the Vmax, FXa generation assay (RRAPGKLQCLASYCWLFWTG)?
A: The Vmax, FXa generation assay was over 2.

Q: And the Vmax, FXa generation assay (RRAPGKLQCLASYCWLFWTGAA)?
A: The Vmax, FXa generation assay was over 3.

Q: And the Vmax, FXa generation assay [15]?
A: The Vmax, FXa generation assay was over 2.

Q: And the “Vmax … (++) means 1-2” value (APGKLQCLASYCWLFWTGIA)?
A: The value was “(++)”.

Q: What about the “Vmax … (++) means 1-2” value (KLTCLAAYCWLF) of the same substance?
A: Its value is “(++)”.

Q: What about the Vmax, FXa generation assay (k-MeLeu-TCLASYCQLF) of the same substance?
A: The Vmax, FXa generation assay was over 3.

Q: What about the “Vmax … (++) means 1-2” value [16] of the same substance?
A: The value was “(++)”.

Q: And the Vmax, FXa generation assay [17]?
A: Its Vmax, FXa generation assay is over 3.

Q: What about the Vmax, FXa generation assay [18] of the same substance?
A: The Vmax, FXa generation assay was over 2.

Q: And the Vmax, FXa generation assay (rRAAGKLTCLASYCWLAATGIA)?
A: Its Vmax, FXa generation assay is over 0.8.

Q: And the Vmax, FXa generation assay [19]?
A: Its Vmax, FXa generation assay is over 2.

Q: And the Vmax, FXa generation assay (RRAPGKLQCLASYCWLFWTAIA)?
A: Its Vmax, FXa generation assay is over 2.

Q: And the “Vmax … (++) means 1-2” value (KLT-Glu-LASY-Orn-WLF)?
A: Its value is “(++)”.

Q: What about the Vmax, FXa generation assay [20] of the same substance?
A: The Vmax, FXa generation assay was over 2.

Q: What about the “Vmax … (++) means 1-2” value (RRAPGKLtCLASYCWLFWTGIA [21]) of the same substance?
A: The value was “(++)”.

Q: And the Vmax, FXa generation assay [22]?
A: Its Vmax, FXa generation assay is over 0.3.

Q: What about the Vmax, FXa generation assay (RRAPGKLQCLASYCWLFWTGI) of the same substance?
A: Its Vmax, FXa generation assay is over 2.

Q: And the Vmax, FXa generation assay (KLTCLASYCWL)?
A: The Vmax, FXa generation assay was over 3.

Q: What about the “Vmax … (++) means 1-2” value (NGGMQKPACLASQCWLFANPLP) of the same substance?
A: Its value is “(++)”.

Q: And the Vmax, FXa generation assay [23]?
A: Its Vmax, FXa generation assay is over 3.

Q: And the Vmax, FXa generation assay [24]?
A: The Vmax, FXa generation assay was over 2.

Q: What about the KM (nM) of hFIXa for FX (compound 3) of the same substance?
A: The KM (nM) of hFIXa for FX was 16 nM.

Q: What about the Vmax (mOD/min min), with phospholipids (compound 3) of the same substance?
A: Its Vmax (mOD/min min), with phospholipids is 3.9 mOD/min min.

Q: And the Vmax (mOD/min min), without phospholipids (compound 3)?
A: The Vmax (mOD/min min), without phospholipids was 2.77 mOD/min min.

Q: What about the Vmax, FXa generation assay with hFIXa (compound 3) of the same substance?
A: Its Vmax, FXa generation assay with hFIXa is over 3.

Q: And the kcat (min^-1) of hFIXa for FX, compound at 1 µM (compound 3)?
A: Its kcat (min^-1) of hFIXa for FX, compound at 1 µM is 0.0177 min⁻¹.

Q: What about the Δ KM (Km compound/Km buffer) (compound 3) of the same substance?
A: The Δ KM (Km compound/Km buffer) was 0.21.

Q: What about the Vmax, FXa generation assay (WVPQWKVTCLASCSRLFHGFDA) of the same substance?
A: The Vmax, FXa generation assay was over 1.5.

Q: What about the Vmax, FXa generation assay [25] of the same substance?
A: The Vmax, FXa generation assay was over 3.

Q: What about the “Vmax … (++) means 1-2” value (KGAYQKLTCLASYCLLFLLTAQ) of the same substance?
A: Its value is “(++)”.
